Assay results published in patent US20240343803A1 (SHANDONG SIMCERE BIOPHARMACEUTICAL, published 2024).

Legend:
[1] = molecular target: T1, human TIGIT ECD-mFc (fusion protein of extracellular domain of human TIGIT and mouse IgG2a Fc fragment) (human); experiment: ELISA
T1 chain: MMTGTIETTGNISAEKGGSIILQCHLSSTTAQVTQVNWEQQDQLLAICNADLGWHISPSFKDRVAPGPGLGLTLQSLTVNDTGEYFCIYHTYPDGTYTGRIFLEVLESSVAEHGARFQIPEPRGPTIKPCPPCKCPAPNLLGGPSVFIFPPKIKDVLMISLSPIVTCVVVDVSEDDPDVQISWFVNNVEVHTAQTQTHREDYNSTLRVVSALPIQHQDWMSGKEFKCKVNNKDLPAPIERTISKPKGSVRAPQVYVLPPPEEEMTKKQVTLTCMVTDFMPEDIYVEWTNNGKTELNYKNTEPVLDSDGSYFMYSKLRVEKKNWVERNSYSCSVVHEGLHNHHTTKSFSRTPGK
Procedure: (§1) After discarding the coating solution, the plate was added with 5% skim milk powder (Sangon Biotech, CAT #A600669-0250)-PBS, 250 μL/well, and incubated at 37° C. for 2-4 hours. […] The enzyme-labeled plate was then washed with 0.05% Tween 20-PBS for 3 times on the Microplate Washer, added with tested antibodies diluted to 13 nM with 1% BSA (diluted by 3-fold serial dilution for 12 concentration points), 50 μL/well, and incubated at 37° C. for 1.5-2 hours. The plate was washed with 0.05% Tween 20-PBS for 3 times on the Microplate Washer, then added with HRP enzyme-labeled antibodies (Merck, CAT #AP113P) diluted with 1% BSA (Sangon Biotech, CAT #A500023-0100)-PBS at a dilution ratio of 1:5000, 50 μL/well, and incubated at 37° C. for 1 hour. After washing 3 times with 0.05% Tween 20-PBS on the Microplate Washer, the plate was added with TMB chromogenic solution (KPL, CAT #52-00-03), 50 μL/well, and incubated at room temperature for 7-10 minutes. 1M HCL, 50 μL/well, was then added into the plate to terminate the reaction, and the OD450 nm was read by a microplate reader (Biotek, Powerwave HT). […] (b) The binding activity of anti-TIGIT chimeric antibodies to CHO-K1 human TIGIT (cells with high, medium and low expression levels) and CHO-KI cynomolgus monkey TIGIT detected by FACS.

[2] = molecular target: T2, cynomolgus monkey TIGIT ECD-mFc (extracellular domain of cynomolgus monkey TIGIT and mouse IgG2a Fc fragment) (cynomolgus monkey); experiment: ELISA
T2 construct: entry includes the signal peptide, limits not readable here
Procedure: as §1

[3] = molecular target: T3, full-length cynomolgus monkey TIGIT on CHO-K1 cells (CHO-K1 cynomolgus monkey TIGIT) (cynomolgus monkey); experiment: FACS
T3 construct: NCBI XP_015300911.1; also called cynomolgus monkey TIGIT cells
Procedure: The collected cells were washed once with PBS (Hyclone, CAT #SH30256), resuspended to 2×10⁵/50 μL with 1% BSA-PBS. The antibodies were diluted to 80 nM with 1% BSA-PBS (diluted by 3-fold serial dilution for 12 concentration points). The 50 μL cells were then mixed with 50 μL diluted antibodies, and then incubated at 4° C. for 60 minutes. […] After washing twice with PBS, the cell samples were resuspended with 1% BSA-PBS, 100 μL/well and then analyzed by flow cytometry (BD, Canto II). […] [0298] (c) The effect of anti-TIGIT chimeric antibodies blocking the interaction between Bio-CD155-His and CHO-K1 human TIGIT high expression cell strains detected by FACS

T3 sequence (chain, as listed by the source limits assumed): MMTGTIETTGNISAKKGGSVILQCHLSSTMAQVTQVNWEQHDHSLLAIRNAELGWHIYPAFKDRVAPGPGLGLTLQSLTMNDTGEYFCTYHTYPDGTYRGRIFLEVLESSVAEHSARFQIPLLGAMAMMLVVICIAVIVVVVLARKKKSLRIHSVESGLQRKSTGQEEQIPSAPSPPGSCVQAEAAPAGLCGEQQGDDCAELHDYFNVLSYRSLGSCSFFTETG

EC50 [1]: 0.0151 nM
EC50 [2]: 0.0158 nM
EC50 [3]: 0.0509 nM
B1: RG6058-hIgG1 (antibody, V domains shown)
VH: EVQLQQSGPGLVKPSQTLSLTCAISGDSVSSNSAAWNWIRQSPSRGLEWLGKTYYRFKWYSDYAVSVKGRITINPDTSKNQFSLQLNSVTPEDTAVFYCTRESTTYDLLAGPFDYWGQGTLVTVSS
VL: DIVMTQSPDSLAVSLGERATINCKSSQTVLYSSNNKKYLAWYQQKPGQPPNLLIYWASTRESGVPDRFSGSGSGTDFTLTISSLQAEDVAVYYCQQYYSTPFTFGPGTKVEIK
notes: human IgG1 format by its name; also called Roche RG6058; control antibody RG6058
